Data on 16 molecules can be found in patent US20200040059A1.

Positions count from the first letter of the chain named. In names and notes the source's numbering stands. Several values for one entry are separate records, joined by “and”; a condition that tells them apart may be missing. Equal values may be shown once.

Assay [1] deals with PD-1 (Homo sapiens (Human)) (UniProt Q15116). In words: flow cytometry, Jurkat/PD-1 cells.
The target is the same in assay [2]. In words: flow cytometry, Jurkat/PD-1 cells; vs wildtype PD-L2 IgV-Fc.
The target in a further assay is T1, CD96 (UniProt P40200).
T1 sequence (looked up): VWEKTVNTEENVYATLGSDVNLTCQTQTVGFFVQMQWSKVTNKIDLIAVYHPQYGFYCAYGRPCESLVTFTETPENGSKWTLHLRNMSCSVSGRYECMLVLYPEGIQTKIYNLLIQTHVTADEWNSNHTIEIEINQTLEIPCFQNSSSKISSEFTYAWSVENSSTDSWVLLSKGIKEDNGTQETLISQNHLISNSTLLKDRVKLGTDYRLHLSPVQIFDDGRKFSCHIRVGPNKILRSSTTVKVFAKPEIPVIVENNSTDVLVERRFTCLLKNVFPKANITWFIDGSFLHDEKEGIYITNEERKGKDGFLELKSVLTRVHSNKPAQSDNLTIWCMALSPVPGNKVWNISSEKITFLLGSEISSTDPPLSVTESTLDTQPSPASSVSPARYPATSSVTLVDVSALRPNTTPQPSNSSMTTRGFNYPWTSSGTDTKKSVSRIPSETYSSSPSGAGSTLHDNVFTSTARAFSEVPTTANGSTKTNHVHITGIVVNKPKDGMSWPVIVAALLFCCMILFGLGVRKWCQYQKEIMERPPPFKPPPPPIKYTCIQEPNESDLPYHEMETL
The assay can be described thus: flow cytometry, CD96-expressing cells.

In a further assay the target is T2, CD226 (human) (UniProt Q15762).
T2 sequence: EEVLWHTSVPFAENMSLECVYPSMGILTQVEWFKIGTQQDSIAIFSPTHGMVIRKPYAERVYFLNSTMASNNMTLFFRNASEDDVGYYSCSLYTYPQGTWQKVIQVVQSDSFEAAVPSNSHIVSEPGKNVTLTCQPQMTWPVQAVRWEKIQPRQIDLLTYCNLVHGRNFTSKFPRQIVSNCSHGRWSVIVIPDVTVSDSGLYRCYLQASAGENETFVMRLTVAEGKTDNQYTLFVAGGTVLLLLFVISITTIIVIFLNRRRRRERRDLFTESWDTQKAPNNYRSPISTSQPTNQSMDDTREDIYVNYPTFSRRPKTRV
The assay can be described thus: flow cytometry, CD226-expressing cells. On the technique in general: In flow cytometry, cells or beads pass a laser one at a time.

PD-1 (Homo sapiens (Human)), sequence (Q15116 21-288 limits assumed): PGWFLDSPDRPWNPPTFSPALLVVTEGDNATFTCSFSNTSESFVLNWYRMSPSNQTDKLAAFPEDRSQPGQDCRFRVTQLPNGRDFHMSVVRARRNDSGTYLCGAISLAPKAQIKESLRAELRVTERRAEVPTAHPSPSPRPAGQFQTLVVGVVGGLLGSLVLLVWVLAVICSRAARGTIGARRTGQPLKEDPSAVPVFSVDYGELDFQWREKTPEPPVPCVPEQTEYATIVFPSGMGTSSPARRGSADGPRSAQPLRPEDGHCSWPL

B1: variant PD-L2 IgV-Fc H15Q, T47A, H69L, Q82R, V89D (Fc fusion, not shown: a dimerising Fc or GST; small tags and cut ends)
chain: FTVTVPKELYIIEQGSNVTLECNFDTGSHVNLGAITASLQKVENDASPHRERATLLEEQLPLGKASFLIPQVQVRDEGQYRCIIIYGDAWDYKYLTLK
With B1, the MFI at 50 nM in assay [1] is 65600. The molecule also had a Fold increase over wildtype PD-L2 IgV-Fc in assay [2] of 6.66 fold.

B2: variant PD-L2 IgV-Fc I13V, H15Q, T47A, Q82R, V89D (SEQ ID NO 1544) (Fc fusion, not shown: a dimerising Fc or GST; small tags and cut ends)
chain: B1 chain with I12V, L68H
B2 had an MFI at 50 nM in assay [1] of 63300. This molecule also registered a Fold increase over wildtype PD-L2 IgV-Fc in assay [2] of 6.43 fold.

B3: variant PD-L2 IgV-Fc I13V, H15Q, T47A, H69L, R76G, V89D (Fc fusion, not shown: a dimerising Fc or GST; small tags and cut ends)
chain: B1 chain with I12V, R75G, R81Q
On to B3, for which the MFI at 50 nM in assay [1] amounted to 54300. The same molecule displayed a Fold increase over wildtype PD-L2 IgV-Fc in assay [2] of 5.52 fold.

B4: variant PD-L2 IgV-Fc I12V, I13V, H15Q, T47A, Q82R, V89D (Fc fusion, not shown: a dimerising Fc or GST; small tags and cut ends)
chain: B1 chain with I11V, I12V, L68H
In assay [1], B4 came in with an MFI at 50 nM of 61200. In addition, in assay [2], the Fold increase over wildtype PD-L2 IgV-Fc was 6.22 fold.

B5: variant PD-L2 IgV-Fc I13V, H15Q, R76G, D77N, Q82R, V89D (Fc fusion, not shown: a dimerising Fc or GST; small tags and cut ends)
chain: B1 chain with I12V, A46T, L68H, R75G, D76N
As for B5, the MFI at 50 nM in assay [1] turned out to be 33100. Besides, the Fold increase over wildtype PD-L2 IgV-Fc in assay [2] was determined as 3.36 fold.

B6: CD155 variant IgV-Fc P18L, K70E, L79P, F91S, V95A, G111R (Fc fusion, not shown: a dimerising Fc or GST; small tags and cut ends)
chain: WPPPGTGDVVVQAPTQVLGFLGDSVTLPCYLQVPNMEVTHVSQLTWARHGESGSMAVFHQTQGPSYSESERLEFVAARPGAELRNASLRMSGLRAEDEGNYTCLFVTFPQRSRSVDIWL
B6: the figures for the Fold Change from CD155-ECD in the assay with CD96 and with CD226 (human) were 0.06 fold and 0.07 fold, respectively. In addition, the results for the MFI at 11.1 nM with CD96 and with CD226 (human) were 973 MFI and 1120 MFI, respectively.

B7: CD155 variant IgV-Fc V9L, P18L, L79P, M90I, F91S, T102S, L104M, G111R (Fc fusion, not shown: a dimerising Fc or GST; small tags and cut ends)
chain: B6 chain with V9L, E70K, M90I, A95V, T102S, L104M
Consider B7, for which, in the assay with CD226 (human), the Fold Change from CD155-ECD worked out at 0.06 fold and the MFI at 11.1 nM came to 910 MFI.

B8: CD155 variant IgV-Fc P18C, T26M, L44V, M55I, Q62K, L79P, F91S, L104M, T107M (Fc fusion, not shown: a dimerising Fc or GST; small tags and cut ends)
chain: B6 chain with L18C, T26M, L44V, M55I, Q62K, E70K, A95V, L104M, T107M, R111G
Consider B8, for which, in the assay with CD226 (human), the Fold Change from CD155-ECD came out at 0.06 fold and the MFI at 11.1 nM was 973 MFI.

B9: CD155 variant IgV-Fc P18F, S65A, S67V, F91S, L104M, G111R (Fc fusion, not shown: a dimerising Fc or GST; small tags and cut ends)
chain: B6 chain with L18F, S65A, S67V, E70K, P79L, A95V, L104M
In the assay with CD226 (human), B9 gave a Fold Change from CD155-ECD of 0.06 fold and an MFI at 11.1 nM of 901 MFI.

B10: CD155 variant IgV-Fc V9I, V10I, P18S, F20S, T45A, L79P, F91S, L104M, F108Y, G111R, S112V (Fc fusion, not shown: a dimerising Fc or GST; small tags and cut ends)
chain: B6 chain with V9I, V10I, L18S, F20S, T45A, E70K, A95V, L104M, F108Y, S112V
For the molecule B10, the Fold Change from CD155-ECD with CD96 and with CD226 (human) was 0.06 fold in each case. For the same molecule, the MFI at 11.1 nM was 974 MFI with CD96 and 973 MFI with CD226 (human).

B11: CD155 variant IgV-Fc V9I, P18T, D23G, L79P, F91S, G111R (Fc fusion, not shown: a dimerising Fc or GST; small tags and cut ends)
chain: B6 chain with V9I, L18T, D23G, E70K, A95V
With B11, in the assay with CD226 (human), the Fold Change from CD155-ECD came out at 0.06 fold and the MFI at 11.1 nM stood at 897 MFI.

B12: CD155 variant IgV-Fc P18F, L79P, M90L, F91S, V95A, L104M, G111R (Fc fusion, not shown: a dimerising Fc or GST; small tags and cut ends)
chain: B6 chain with L18F, E70K, M90L, L104M
As to B12, in the assay with CD226 (human), the Fold Change from CD155-ECD is 0.06 fold and 0.07 fold; the MFI at 11.1 nM was 917 MFI and 1070 MFI.

B13: CD155 variant IgV-Fc P18T, D23G, S24A, N35D, H49L, L79P, F91S, L104M, G111R (Fc fusion, not shown: a dimerising Fc or GST; small tags and cut ends)
chain: PGTGDVVVQAPTQVTGFLGGAVTLPCYLQVPDMEVTHVSQLTWARLGESGSMAVFHQTQGPSYSESKRLEFVAARPGAELRNASLRMSGLRVEDEGNYTCMFVTFPQRSRSVDIWL
B13 came in with an MFI at 11.1 nM in the assay with CD226 (human) of 987 MFI.

B14: CD155 variant IgV-Fc V9L, P18S, Q60R, V75L, L79P, R89K, F91S, L104E, G111R (Fc fusion, not shown: a dimerising Fc or GST; small tags and cut ends)
chain: B13 chain with V6L, T15S, G20D, A21S, D32N, L46H, Q57R, V72L, R86K, M101E
Regarding B14, the MFI at 11.1 nM was 959 MFI with CD96 and 986 MFI with CD226 (human).

B15: CD155 variant IgV-Fc P18T, T45Q, T61R, S65N, S67L (Fc fusion, not shown: a dimerising Fc or GST; small tags and cut ends)
chain: PGTGDVVVQAPTQVTGFLGDSVTLPCYLQVPNMEVTHVSQLQWARHGESGSMAVFHQRQGPNYLESKRLEFVAARLGAELRNASLRMFGLRVEDEGNYTCLFVTFPQGSRSVDIWL
The molecule B15 had an MFI at 100 nM with CD96 of 22800 MFI.

B16: CD155 variant IgV-Fc V11A, P18S, L79P, F91S, L104M, G111R (Fc fusion, not shown: a dimerising Fc or GST; small tags and cut ends)
chain: B13 chain with V8A, T15S, G20D, A21S, D32N, L46H
As to B16, the MFI at 11.1 nM with CD96 is 923 MFI; with CD226 (human), 974 MFI.
